In data set [1] the test system is HeLa Kyoto. Kind of data set: solubility in G1/S (NP-40 vs SDS abundance) (log2 ratio); higher = more soluble. The conditions noted are these: cell cycle stage: G1/S.
For data set [2], the system named is HeLa Kyoto. Briefly: melting temperature (median over replicates), in situ; higher = more thermally stable.
In data set [3] the test system is HeLa Kyoto. Kind of data set: thermal stability score vs G1/S (z-score of summed log2 fold changes over temperatures); higher = more thermally stable than in G1/S.
In data set [4] the test system is HeLa Kyoto. Kind of data set: solubility change mitosis vs G1/S (difference of NP-40 vs SDS log2 ratios) (log2 ratio difference); higher = more soluble in mitosis.
The mark [5] stands for this setting: cell cycle stage: early G1 (4.5 h after nocodazole release).
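For melting temperature (median over replicates), in situ in this document: HeLa Kyoto cells synchronized by double thymidine or nocodazole block, proteins quantified by TMT10plex mass spectrometry, three independent biological replicates.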
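For solubility change mitosis vs G1/S (difference of NP-40 vs SDS log2 ratios) in this document: synchronized HeLa Kyoto cells (double thymidine block for G1/S, nocodazole release for mitosis), protein amounts in NP-40 versus SDS lysates quantified by mass spectrometry, three biological replicates.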
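For solubility in G1/S (NP-40 vs SDS abundance) in this document: HeLa Kyoto cells arrested at G1/S by double thymidine block, proteins quantified by TMT10plex mass spectrometry in mild NP-40 versus SDS extracts, three biological replicates.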
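For thermal stability score vs G1/S (z-score of summed log2 fold changes over temperatures) in this document: synchronized HeLa Kyoto cells, proteins quantified by TMT10plex mass spectrometry, three biological replicates, mitosis taken 0.5 h after nocodazole release, G1/S directly after double thymidine block.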

On to “MAEGEDVPPLPTSSGDGWEKDLEEALEAGGCDLETLRNIIQGRPLPADLRAKVWKIALNVAGKGDSLASWDGILDLPEQNTIHKDCLQFIDQLSVPEEKAAELLLDIESVITFYCKSRNIKYSTSLSWIHLLKPLVHLQLPRSDLYNCFYAIMNKYIPRDCSQKGRPFHLFRLLIQYHEPELCSYLDTKKITPDSYALNWLGSLFACYCSTEVTQAIWDGYLQQADPFFIYFLMLIILVNAKEVILTQESDSKEEVIKFLENTPSSLNIEDIEDLFSLAQYYCSKTPASFRKDNHHLFGSTLLGIKDDDADLSQALCLAISVSEILQANQLQGEGVRFFVVDCRPAEQYNAGHLSTAFHLDSDLMLQNPSEFAQSVKSLLEAQKQSIESGSIAGGEHLCFMGSGREEEDMYMNMVLAHFLQKNKEYVSIASGGFMALQQHLADINVDGPENGYGHWIASTSGSRSSINSVDGESPNGSSDRGMKSLVNKMTVALKTKSVNVREKVISFIENTSTPVDRMSFNLPWPDRSCTERHVSSSDRVGKPYRGVKPVFSIGDEEEYDTDEIDSSSMSDDDRKEVVNIQTWINKPDVKHHFPCKEVKESGHMFPSHLLVTATHMYCLREIVSRKGLAYIQSRQALNSVVKITSKKKHPELITFKYGNSSASGIEILAIERYLIPNAGDATKAIKQQIMKVLDALES [TBC1D23]”, for which the “solubility in G1/S (log2)” value in the data set on HeLa Kyoto [1] worked out at 0.0926. The melting temperature in the data set on HeLa Kyoto [2] (cell cycle stage: G1/S) is 50.5 °C; with HeLa Kyoto [2] (cell cycle stage: mitosis), 50 °C. The thermal stability score in the data set with HeLa Kyoto [3] (setting [5]) stood at 0.43; in the data set with HeLa Kyoto [3] (cell cycle stage: mitosis) it was 0.147. For the same substance, the “solubility change mitosis (log2)” value in the data set with HeLa Kyoto [4] worked out at 0.0232.

Take “MVDLTQVMDDEVFMAFASYATIILSKMMLMSTATAFYRLTRKVFANPEDCVAFGKGENAKKYLRTDDRVERVRRAHLNDLENIIPFLGIGLLYSLSGPDPSTAILHFRLFVGARIYHTIAYLTPLPQPNRALSFFVGYGVTLSMAYRLLKSKLYL [MGST1]”: the “solubility in G1/S (log2)” value with HeLa Kyoto [1] is -0.321. Further, the melting temperature with HeLa Kyoto [2] (cell cycle stage: G1/S) was determined as 56.8 °C; in the data set with HeLa Kyoto [2] (cell cycle stage: mitosis) it was 58 °C. Further, the thermal stability score is 0.0202 with HeLa Kyoto [3] (setting [5]) and -1.77 with HeLa Kyoto [3] (cell cycle stage: mitosis). Moreover, in the data set on HeLa Kyoto [4], the “solubility change mitosis (log2)” value is -0.17.

On to ITSN1, for which the “solubility in G1/S (log2)” value with HeLa Kyoto [1] was found to be 0.0319. Moreover, the melting temperature in the data set with HeLa Kyoto [2] (cell cycle stage: G1/S) came to 49.5 °C; in the data set with HeLa Kyoto [2] (cell cycle stage: mitosis), 50.2 °C. The thermal stability score in the data set on HeLa Kyoto [3] (setting [5]) was -0.00548; in the data set on HeLa Kyoto [3] (cell cycle stage: mitosis), 0.39. The “solubility change mitosis (log2)” value in the data set on HeLa Kyoto [4] is -0.0764.

For the substance “MEEMSGESVVSSAVPAAATRTTSFKGTSPSSKYVKLNVGGALYYTTMQTLTKQDTMLKAMFSGRMEVLTDSEGWILIDRCGKHFGTILNYLRDGAVPLPESRREIEELLAEAKYYLVQGLVEECQAALQNKDTYEPFCKVPVITSSKEEQKLIATSNKPAVKLLYNRSNNKYSYTSNSDDNMLKNIELFDKLSLRFNGRVLFIKDVIGDEICCWSFYGQGRKIAEVCCTSIVYATEKKQTKVEFPEARIYEETLNILLYEAQDGRGPDNALLEATGGAAGRSHHLDEDEERERIERVRRIHIKRPDDRAHLHQ [KCTD10]”, in the data set with HeLa Kyoto [1], the “solubility in G1/S (log2)” value is -1.29. This substance also registered a melting temperature in the data set on HeLa Kyoto [2] (cell cycle stage: mitosis) of 51.6 °C. The thermal stability score with HeLa Kyoto [3] (setting [5]) turned out to be 0.937; in the data set on HeLa Kyoto [3] (cell cycle stage: mitosis), 1.24. Moreover, the “solubility change mitosis (log2)” value in the data set with HeLa Kyoto [4] was 0.647.

On to “MVTVGNYCEAEGPVGPAWMQDGLSPCFFFTLVPSTRMALGTLALVLALPCRRRERPAGADSLSWGAGPRISPYVLQLLLATLQAALPLAGLAGRVGTARGAPLPSYLLLASVLESLAGACGLWLLVVERSQARQRLAMGIWIKFRHSPGLLLLWTVAFAAENLALVSWNSPQWWWARADLGQQVQFSLWVLRYVVSGGLFVLGLWAPGLRPQSYTLQVHEEDQDVERSQVRSAAQQSTWRDFGRKLRLLSGYLWPRGSPALQLVVLICLGLMGLERALNVLVPIFYRNIVNLLTEKAPWNSLAWTVTSYVFLKFLQGGGTGSTGFVSNLRTFLWIRVQQFTSRRVELLIFSHLHELSLRWHLGRRTGEVLRIADRGTSSVTGLLSYLVFNVIPTLADIIIGIIYFSMFFNAWFGLIVFLCMSLYLTLTIVVTEWRTKFRRAMNTQENATRARAVDSLLNFETVKYYNAESYEVERYREAIIKYQGLEWKSSASLVLLNQTQNLVIGLGLLAGSLLCAYFVTEQKLQVGDYVLFGTYIIQLYMPLNWFGTYYRMIQTNFIDMENMFDLLKEETEVKDLPGAGPLRFQKGRIEFENVHFSYADGRETLQDVSFTVMPGQTLALVGPSGAGKSTILRLLFRFYDISSGCIRIDGQDISQVTQASLRSHIGVVPQDTVLFNDTIADNIRYGRVTAGNDEVEAAAQAAGIHDAIMAFPEGYRTQVGERGLKLSGGEKQRVAIARTILKAPGIILLDEATSALDTSNERAIQASLAKVCANRTTIVVAHRLSTVVNADQILVIKDGCIVERGRHEALLSRGGVYADMWQLQQGQEETSEDTKPQTMER [ABCB6]”, for which, in the data set on HeLa Kyoto [1], the “solubility in G1/S (log2)” value was -0.0102. For the same substance, the melting temperature with HeLa Kyoto [2] (cell cycle stage: G1/S) is 54 °C; in the data set with HeLa Kyoto [2] (cell cycle stage: mitosis) it was 53.4 °C. Besides, the thermal stability score was -1.04 in the data set on HeLa Kyoto [3] (setting [5]) and -3.83 in the data set with HeLa Kyoto [3] (cell cycle stage: mitosis). The “solubility change mitosis (log2)” value in the data set with HeLa Kyoto [4] is -0.128.

For the substance “MRLPDLRPWTSLLLVDAALLWLLQGPLGTLLPQGLPGLWLEGTLRLGGLWGLLKLRGLLGFVGTLLLPLCLATPLTVSLRALVAGASRAPPARVASAPWSWLLVGYGAAGLSWSLWAVLSPPGAQEKEQDQVNNKVLMWRLLKLSRPDLPLLVAAFFFLVLAVLGETLIPHYSGRVIDILGGDFDPHAFASAIFFMCLFSFGSSLSAGCRGGCFTYTMSRINLRIREQLFSSLLRQDLGFFQETKTGELNSRLSSDTTLMSNWLPLNANVLLRSLVKVVGLYGFMLSISPRLTLLSLLHMPFTIAAEKVYNTRHQEVLREIQDAVARAGQVVREAVGGLQTVRSFGAEEHEVCRYKEALEQCRQLYWRRDLERALYLLVRRVLHLGVQMLMLSCGLQQMQDGELTQGSLLSFMIYQESVGSYVQTLVYIYGDMLSNVGAAEKVFSYMDRQPNLPSPGTLAPTTLQGVVKFQDVSFAYPNRPDRPVLKGLTFTLRPGEVTALVGPNGSGKSTVAALLQNLYQPTGGQVLLDEKPISQYEHCYLHSQVVSVGQEPVLFSGSVRNNIAYGLQSCEDDKVMAAAQAAHADDFIQEMEHGIYTDVGEKGSQLAAGQKQRLAIARALVRDPRVLILDEATSALDVQCEQALQDWNSRGDRTVLVIAHRLQTVQRAHQILVLQEGKLQKLAQL [TAP2]”, the “solubility in G1/S (log2)” value with HeLa Kyoto [1] is -0.259. For the same substance, the melting temperature with HeLa Kyoto [2] (cell cycle stage: G1/S) came out at 49.8 °C; in the data set with HeLa Kyoto [2] (cell cycle stage: mitosis), 50.4 °C. Further, the thermal stability score came to 0.266 with HeLa Kyoto [3] (setting [5]) and 0.39 with HeLa Kyoto [3] (cell cycle stage: mitosis). Moreover, in the data set with HeLa Kyoto [4], the “solubility change mitosis (log2)” value is -0.195.

The record behind these values is the supplement of paper PMC5998384.
